Laboratory results from PMC4837482, “The complex binding mode of the peptide hormone H2 relaxin to its receptor RXFP1” (Nature Communications, 2016).
Where a chain is given by its changes, count along the chain named. Where no end group is shown, it is not given here. The star is where a group is joined. DTPA = O=C(O)CN(CCN(CC(=O)O)CC(=O)O)CCN(CC(=O)O)CC(=O)*

How the values were obtained:
RXFP1 F54A = target: T1, RXFP1 F54A (Homo sapiens, UniProt Q9HBX9, F76A); experiment: Eu-H2 relaxin saturation binding assay, transfected HEK293T cells; conditions: F54A-RXFP1 versus wild-type RXFP1
T1 construct: cells expressing full-length RXFP1 and mutants; expressed in transfected cells; host or cells: HEK293T
T1 sequence (Q9HBX9 23-757 F76A limits assumed): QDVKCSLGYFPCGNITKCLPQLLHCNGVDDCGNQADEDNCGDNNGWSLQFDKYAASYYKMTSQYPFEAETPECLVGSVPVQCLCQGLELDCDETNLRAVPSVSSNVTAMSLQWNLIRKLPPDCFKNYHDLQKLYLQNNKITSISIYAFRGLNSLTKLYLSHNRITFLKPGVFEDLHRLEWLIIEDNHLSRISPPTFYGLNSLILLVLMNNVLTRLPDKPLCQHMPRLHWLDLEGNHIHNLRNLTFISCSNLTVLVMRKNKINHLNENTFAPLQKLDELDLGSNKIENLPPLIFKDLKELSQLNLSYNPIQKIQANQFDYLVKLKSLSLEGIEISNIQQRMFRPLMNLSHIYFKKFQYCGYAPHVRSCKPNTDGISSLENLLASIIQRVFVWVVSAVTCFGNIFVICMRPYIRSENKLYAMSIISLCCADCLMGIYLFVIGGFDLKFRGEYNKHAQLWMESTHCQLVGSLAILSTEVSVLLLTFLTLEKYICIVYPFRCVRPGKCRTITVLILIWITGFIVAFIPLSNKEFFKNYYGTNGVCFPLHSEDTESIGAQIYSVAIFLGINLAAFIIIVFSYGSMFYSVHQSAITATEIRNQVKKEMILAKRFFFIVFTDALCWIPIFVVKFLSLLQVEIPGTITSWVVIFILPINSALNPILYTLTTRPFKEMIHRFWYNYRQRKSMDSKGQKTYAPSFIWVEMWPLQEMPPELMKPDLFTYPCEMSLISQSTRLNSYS

[1] = target: RXFP1 F50A, full length (human)
[2] = target: RXFP1 F50A^ins, full length (human)
[3] = target: RXFP1 N43A/N44A, full length (human)
[4] = target: RXFP1 N43A, full length (human)
[5] = target: RXFP1 A55S, full length (human)
[6] = target: T2, RXFP1 A68^Δ, full length (human) (UniProt Q9HBX9)
T2 sequence: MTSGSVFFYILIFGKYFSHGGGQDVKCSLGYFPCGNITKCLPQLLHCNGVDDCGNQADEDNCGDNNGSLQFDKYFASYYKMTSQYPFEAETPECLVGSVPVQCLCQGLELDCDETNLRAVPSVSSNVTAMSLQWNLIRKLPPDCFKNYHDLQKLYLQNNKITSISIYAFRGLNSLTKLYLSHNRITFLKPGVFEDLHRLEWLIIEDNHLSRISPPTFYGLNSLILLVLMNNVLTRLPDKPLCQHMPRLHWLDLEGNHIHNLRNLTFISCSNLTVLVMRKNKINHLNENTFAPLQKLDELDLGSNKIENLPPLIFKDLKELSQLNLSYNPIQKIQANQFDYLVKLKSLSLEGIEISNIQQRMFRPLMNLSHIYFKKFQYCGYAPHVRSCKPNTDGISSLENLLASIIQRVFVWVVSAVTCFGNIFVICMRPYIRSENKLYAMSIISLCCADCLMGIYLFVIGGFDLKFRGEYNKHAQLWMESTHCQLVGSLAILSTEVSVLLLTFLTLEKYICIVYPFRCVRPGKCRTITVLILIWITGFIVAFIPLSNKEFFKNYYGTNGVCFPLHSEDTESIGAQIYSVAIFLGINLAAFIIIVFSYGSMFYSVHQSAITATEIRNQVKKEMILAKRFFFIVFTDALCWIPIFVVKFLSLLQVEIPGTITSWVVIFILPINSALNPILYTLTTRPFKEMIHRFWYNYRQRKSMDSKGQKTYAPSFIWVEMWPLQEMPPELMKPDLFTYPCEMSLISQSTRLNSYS

[7] = target: RXFP1 Q49A/F50A, full length (human)
[8] = target: RXFP1 N44A, full length (human)
[9] = target: RXFP1 Y58A, full length (human)
[10] = target: RXFP1 K52A, full length (human)
[11] = target: RXFP1 D42A, full length (human)
[12] = target: T3, relaxin family peptide receptor-1 (RXFP1), wild type, full length (human, UniProt Q9HBX9 23-757); experiment: europium-labelled ligand saturation binding on cells (time-resolved fluorescence); HEK293T cells transiently transfected with receptor, 96-well plates; increasing Eu-H2 relaxin (maximum 15 nM) with or without 1 μM unlabelled H2 relaxin, 1 h, room temperature; 20 mM HEPES pH 7.5, 1.5 mM CaCl2, 50 mM NaCl, 0.01% NaN3, 1% BSA; one-site fit; conditions: one partner purified
T3 construct: also called wild-type RXFP1; source: HEK293T, transiently transfected, on cells; not shown: FLAG, N-terminal, kept
T3 sequence (looked up): T1 sequence (Q9HBX9 23-757 F76A limits assumed) with A54F

## H2 relaxin: two-chain 6-kDa peptide hormone structurally related to insulin; recombinant human gene-2 H2 relaxin provided by Corthera
RXFP1 F54A
  loss in H2 relaxin binding: fourfold

B1: H2 relaxin (ligand, human)
chain 1: QLYSALANKCCHVGCTKRSLARFC
chain 2: DSWMEEVIKLCGRELVRAQIAICGMSTWS
[1]
  H2 relaxin-induced cAMP response (pCRE β-galactosidase reporter, HEK293T), pEC50: 9.45 pEC50
[2]
  H2 relaxin-induced cAMP response (pCRE β-galactosidase reporter, HEK293T), pEC50: 9.41 pEC50
[3]
  H2 relaxin-induced cAMP response (pCRE β-galactosidase reporter, HEK293T), pEC50: 8.29 pEC50
[4]
  H2 relaxin-induced cAMP response (pCRE β-galactosidase reporter, HEK293T), pEC50: 9.06 pEC50
[5]
  H2 relaxin-induced cAMP response (pCRE β-galactosidase reporter, HEK293T), pEC50: 11.4 pEC50
[6]
  H2 relaxin-induced cAMP response (pCRE β-galactosidase reporter, HEK293T), pEC50: 11.2 pEC50
[7]
  H2 relaxin-induced cAMP response (pCRE β-galactosidase reporter, HEK293T), pEC50: 9.17 pEC50
[8]
  H2 relaxin-induced cAMP response (pCRE β-galactosidase reporter, HEK293T), pEC50: 11 pEC50
[9]
  H2 relaxin-induced cAMP response (pCRE β-galactosidase reporter, HEK293T), pEC50: 10.9 pEC50
[10]
  H2 relaxin-induced cAMP response (pCRE β-galactosidase reporter, HEK293T), pEC50: 11.1 pEC50
[11]
  H2 relaxin-induced cAMP response (pCRE β-galactosidase reporter, HEK293T), pEC50: < 6 pEC50

B2: Europium-labelled H2 relaxin (ligand, human)
chain 1: {DTPA}-QLYSALANKCCHVGCTKRSLARFC
chain 2: DSWMEEVIKLCGRELVRAQIAICGMSTWS
modifications: not fully specified; ends and bridges not checked; also: DTPA cage loaded with Eu^3+
notes: A chain of human gene-2 (H2) relaxin; numbers count on: the A chain; B chain of human gene-2 (H2) relaxin; numbers count on: the B chain; also called Eu-H2 relaxin; Eu-H2
[12]
  Kd: 0.57 nM
